Results on five molecules are retold here after US20260098102A1 (NATIONAL UNIVERSITY CORPORATION KOBE UNIVERSITY, published 2026).

Sequences and labels used below:
T1: mouse SIRPA_NOD (mouse (NOD), UniProt P97797 32-513)
T1 construct: FLAG-tagged (pFLAG V5-DEST), on 293α cells; also called NOD SCID
T1 chain: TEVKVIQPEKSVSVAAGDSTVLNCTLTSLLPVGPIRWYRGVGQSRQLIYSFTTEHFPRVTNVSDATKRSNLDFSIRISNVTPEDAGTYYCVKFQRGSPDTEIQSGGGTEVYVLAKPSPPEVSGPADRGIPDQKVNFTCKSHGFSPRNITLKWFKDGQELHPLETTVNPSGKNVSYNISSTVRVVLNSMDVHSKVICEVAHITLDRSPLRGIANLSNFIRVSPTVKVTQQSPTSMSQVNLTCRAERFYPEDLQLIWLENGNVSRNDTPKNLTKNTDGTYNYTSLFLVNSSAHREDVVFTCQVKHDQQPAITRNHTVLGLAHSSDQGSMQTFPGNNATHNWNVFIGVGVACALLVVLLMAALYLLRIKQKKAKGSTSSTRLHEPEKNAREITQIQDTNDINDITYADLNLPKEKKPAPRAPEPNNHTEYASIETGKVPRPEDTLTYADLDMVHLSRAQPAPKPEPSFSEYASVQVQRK

T2: cSIRPA_ECD (cynomolgus monkey)
T2 construct: Secreted recombinant protein
T2 chain: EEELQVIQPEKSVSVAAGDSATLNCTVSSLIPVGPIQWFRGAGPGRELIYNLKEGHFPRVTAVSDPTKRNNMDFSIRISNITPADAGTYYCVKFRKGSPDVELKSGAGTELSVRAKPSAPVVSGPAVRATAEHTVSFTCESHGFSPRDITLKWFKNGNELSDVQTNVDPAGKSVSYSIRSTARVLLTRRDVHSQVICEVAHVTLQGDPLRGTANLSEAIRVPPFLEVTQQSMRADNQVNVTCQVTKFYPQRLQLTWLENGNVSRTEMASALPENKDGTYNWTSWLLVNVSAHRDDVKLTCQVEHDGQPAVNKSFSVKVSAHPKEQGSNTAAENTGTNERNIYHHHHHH

T3: mouse SIRPA_129 (mouse (129), UniProt P97797 32-513)
T3 construct: FLAG-tagged (pFLAG V5-DEST), on 293α cells; also called 129sv
T3 chain: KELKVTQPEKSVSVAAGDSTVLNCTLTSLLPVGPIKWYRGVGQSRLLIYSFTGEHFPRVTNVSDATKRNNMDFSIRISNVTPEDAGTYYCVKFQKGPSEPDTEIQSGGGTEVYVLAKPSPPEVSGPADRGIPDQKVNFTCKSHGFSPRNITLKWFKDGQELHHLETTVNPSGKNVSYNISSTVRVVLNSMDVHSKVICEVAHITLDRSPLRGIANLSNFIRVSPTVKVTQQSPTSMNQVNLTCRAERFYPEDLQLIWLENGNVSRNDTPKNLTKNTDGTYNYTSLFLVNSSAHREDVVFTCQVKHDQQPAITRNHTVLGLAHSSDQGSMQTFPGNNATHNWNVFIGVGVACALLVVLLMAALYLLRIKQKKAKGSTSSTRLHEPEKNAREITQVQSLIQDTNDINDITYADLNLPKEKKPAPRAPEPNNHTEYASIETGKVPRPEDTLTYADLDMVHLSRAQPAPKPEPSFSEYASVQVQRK

B1: human chimeric anti-SIRPA antibody cD13 (antibody, human IgG4 S228P, kappa, F234A L235A, V domains shown)
VH: EVQLVESGGGLVQPGRSLKLSCLASGFTFSDYGMIWVRQAPGKGLEWVASISSSSSYIYYADTVKGRFTISRENAKNTLFLHMTSLRSEDTALYYCARRYYGFNYPFDYWGQGVMVTVSS
VL: DTVLTQSPALAVSLGQRVTISCGASKSVRTYMHWYQQKSGQQPKLLIYSASNLEAGVPSRFSGSGSGTDFTLTIDPVEADDIANYYCQQSNEPPYTFGAGTKLELKR
notes: Human IgG4proFALA heavy chain, human kappa light chain; also called cD13 (IgG4pf); human chimeric antibody D13
B2: humanized anti-SIRPA antibody hD13_H1L3 (antibody, human IgG4 S228P, kappa, F234A L235A, V domains shown)
VH: QVQLVESGGGVVQPGRSLRLSCAASGFTFSDYGMIWVRQAPGKGLEWVASISSSSSYIYYADSVKGRFTISRDNSKNRLYLQMNSLRAEDTAVYYCARRYYGFNYPFDYWGQGTMVTVSS
VL: DTQLTQSPSSLSASVGQRVTITCGASKSVRTYMHWYQQKPGKQPKLLIYSASNLEAGVPSRFSGSGSGTDFTLTISSLQPEDFATYYCQQSNEPPYTFGQGTKLEIKR
notes: hH1 heavy chain (IgG4proFALA) and hL3 kappa light chain; also called hD13_HIL3; HIL3 antibody
B3: humanized anti-SIRPA antibody hD13_H1L4 (antibody, human IgG4 S228P, kappa, F234A L235A, V domains shown)
VH: B2 VH
VL: DTVLTQSPDSLAVSLGQRATINCGASKSVRTYMHWYQQKPGQQPKLLIYSASNLEAGVPSRFSGSGSGTDFTLTISSLQAEDVAVYYCQQSNEPPYTFGQGTKVEIKR
notes: hH1 heavy chain (IgG4proFALA) and hL4 kappa light chain; also called hD13_HIL4; hD13_HIL4h
B4: humanized anti-SIRPA antibody hD13_H2L3 (antibody, human IgG4 S228P, kappa, F234A L235A, V domains shown)
VH: B2 VH with Q1E, R78T
VL: B2 VL
notes: hH2 heavy chain (IgG4proFALA) and hL3 kappa light chain; also called H2L3 antibody
B5: humanized anti-SIRPA antibody hD13_H2L2 (antibody, human IgG4 S228P, kappa, F234A L235A, V domains shown)
VH: B2 VH with Q1E, R78T
VL: B2 VL with D1A, T2I, Q43A
notes: hH2 heavy chain (IgG4proFALA) and hL2 kappa light chain; also called H2L2 antibody

Substitutions are numbered along the chain they refer to.

The target of the first test is T1, mouse SIRPA_NOD. In words: cell-based ELISA on 293α cells expressing FLAG-tagged mouse SIRPA (NOD); Abs 490 normalized to FLAG tag [i]. The procedure:
(§1) The 293a cells, described in Example 1)-6, were prepared at 5× 10⁵ cells/mL in a 10% FBS-containing DMEM medium. pFLAG V5-DEST-SIRPA_V1-V10, pFLAG V5-DEST-monkey SIRPA, pFLAG V5-DEST-mouse SIRPA, or pFLAG V5-DEST was introduced into the cells using Lipofectamine LTX (Invitrogen), and 100 μL each was aliquoted to a 96-well plate (Corning Incorporated) and cultured overnight in a 10% FBS-containing DMEM medium at 37° C. under a 5% CO₂ condition. The obtained introduced cells were used for cell-based ELISA in a state that they adhered. After the culture supernatant was removed, 50 μL per well of hD13_HIL3, hD13_HIL4h, hD13_H2L2, hD13_H2L3, or cD13 prepared in Examples 6 and 7 or a control antibody was added to each of various SIRPA genes-introduced cells at a final concentration of 0 to 10,000 ng/ml, and the mixture was allowed to stand at 4° C. for one hour. Thereafter, binding to human SIRPA was evaluated in the same manner as in Example 5-1.
For orientation: ELISA stands for enzyme-linked immunosorbent assay.
Consider B1, for which the binding result is “no binding (tested: 10000 ng/mL)”.
As to B2, the binding result is listed as “no binding (tested: 10000 ng/mL)”.
Still for that read-out and setting: next, B3: “no binding (tested: 10000 ng/mL)”; B4: “no binding (tested: 10000 ng/mL)”; B5: “no binding (tested: 10000 ng/mL)”.

The target of the next test is T2, cSIRPA_ECD. The test is described as follows: SPR Biacore T200, antibody captured on anti-human IgG (Fc), monkey SIRPA_ECD as analyte, 1:1 model. The protocol:
The dissociation constants of hD13_HIL3, hD13_HIL4, hD13_H2L2, and hD13_H2L3 prepared in Example 7 against human SIRPA_V1_IgV and monkey SIRPA_ECD prepared in Example 1 were measured by a capture method of capturing a humanized antibody as a ligand to an Anti-Human IgG (Fc) antibody immobilized using Human Antibody Capture Kit (GE Healthcare Bioscience Corp.) and measuring an antigen as an analyte, using Biacore T200 (GE Healthcare Bioscience Corp.). HBS-EP+ (GE Healthcare Bioscience Corp.) was used as a running buffer, and CM5 (GE Healthcare Bioscience Corp.) was used as a sensor chip. Onto the chip, 1 μg/mL humanized antibody was added at 10 μL/min for 60 seconds, and then a serially diluted solution (0.5 to 8 μg/mL) of human SIRPA protein or a serially diluted solution (1 to 16 μg/mL) of monkey SIRPA protein was added as an antigen at a flow rate of 30 μL/min for 120 seconds, and subsequently the dissociation phase for 600 seconds was monitored. As a regenerant, 3 M magnesium chloride (GE Healthcare Bioscience Corp.) was added at a flow rate of 20 μL/min for 30 seconds. For data analysis, a binding rate constant (ka), a dissociation rate constant (kd), and a dissociation constant (KD; KD=kd/ka) were calculated using a 1:1 binding model.
What is called Kd is the free concentration of one partner at which half of the binding sites on the other are occupied at equilibrium, for simple one-to-one binding. B2: the equilibrium dissociation constant (Kd) was found to be 38.6 nM.
The same measure, in the same setting: the value for B3 was 83.9 nM.
As to B4, the affinity, expressed as Kd, was 54.2 nM.
Regarding B5, the Kd worked out at 162 nM.

The target in another test is T4, human SIRPA_V3 (human, UniProt P78324 31-504).
T4 construct: FLAG-tagged (pFLAG V5-DEST), on 293α cells; also called human SIRPA Variant 3
T4 sequence (P78324 other isoform, or with tags, fused parts or gaps limits assumed): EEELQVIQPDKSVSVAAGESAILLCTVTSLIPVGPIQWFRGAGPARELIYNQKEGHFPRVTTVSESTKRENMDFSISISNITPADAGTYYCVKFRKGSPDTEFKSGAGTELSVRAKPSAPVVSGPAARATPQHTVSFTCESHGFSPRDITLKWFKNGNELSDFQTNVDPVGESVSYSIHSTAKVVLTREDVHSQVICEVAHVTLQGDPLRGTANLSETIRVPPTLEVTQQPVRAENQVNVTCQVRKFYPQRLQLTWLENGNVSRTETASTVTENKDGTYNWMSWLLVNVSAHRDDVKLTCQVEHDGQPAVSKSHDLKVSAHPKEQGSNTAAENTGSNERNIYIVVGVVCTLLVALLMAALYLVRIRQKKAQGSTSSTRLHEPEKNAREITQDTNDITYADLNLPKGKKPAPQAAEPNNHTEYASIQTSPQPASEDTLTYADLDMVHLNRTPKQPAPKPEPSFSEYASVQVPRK
The test is described as follows: cell-based ELISA on 293α cells expressing FLAG-tagged SIRPA_V3; Abs 490 normalized to FLAG tag [iii]. The protocol:
as §1
As usually defined, the EC50 (read off the curve) is the concentration giving half of the maximal effect. Consider B1, for which the “EC50 (read off the curve)” value was around 40 ng/mL.
Still for that read-out and setting: the value for B2 was around 30 ng/mL; that for B3 was around 30 ng/mL.
Still for that read-out and setting: the value for B4 was around 40 ng/mL; that for B5 was around 40 ng/mL.

The next test deals with T3, mouse SIRPA_129. In words: cell-based ELISA on 293α cells expressing FLAG-tagged mouse SIRPA (129sv); Abs 490 normalized to FLAG tag [iii]. The procedure: as §1
For the molecule B1, the binding result was “no binding (tested: 10000 ng/mL)”.
The same measure, in the same setting: next, B2: “no binding (tested: 10000 ng/mL)”; B3: “no binding (tested: 10000 ng/mL)”.
As for B4, the binding result was “no binding (tested: 10000 ng/mL)”.
As to B5, the binding result is “no binding (tested: 10000 ng/mL)”.

The next test deals with T5, human SIRPA_V9 (human, UniProt P78324 31-504).
T5 construct: FLAG-tagged (pFLAG V5-DEST), on 293α cells; also called human SIRPA Variant 9
The test is described as follows: cell-based ELISA on 293α cells expressing FLAG-tagged SIRPA_V9; Abs 490 normalized to FLAG tag [i]. The procedure: as §1
In the case of B1, the “EC50 (read off the curve)” value is around 40 ng/mL.
Regarding B2, the 50% effective concentration (EC50 (read off the curve)) was around 40 ng/mL.
The same measure, in the same setting: next, B3: around 40 ng/mL; B4: around 40 ng/mL; B5: around 40 ng/mL.
